# Measurements as given in patent US20130108636A1 (US Dept. of Health and Human Services, published 2013).
# B1: m36.4 (VHH)
# VHH: QVQLVQSGGGLVQPGGSLRLSCAASAFDFSDYEMSWVREAPGKGLEWIGEINDSGNTIYNPSLKSRVTISRDNSKNTLYLQMNTLRAEDTAIYYCAIYGGNSGGEYWGQGTLVTVSS
# notes: eAd, mutant of m36; also called m36.4 eAd
# B2: m36.1 (VHH)
# VHH: QVQLVQSGGGLVQPGGSLRLSCAASTFDFSDYEMSWVREAPGKGLEWIGEINDSGNTIYNPSLKNRVTISRDNSKNTLYLQMNTLRAEDTAIYYCAIYGGNSGGEYWGQGTLVTVSS
# notes: eAd, mutant of m36 selected from a phage library
# B3: m36.2 (VHH)
# VHH: QVQLVQSGGGLIQPGGSLRLSCAASAFDFSDYEMSWVRQDPGKGLEWIGEINDRGNTIYNPSLKSRVTISRDNSKNTLYLQMNTLRAEDTAIYYCAIYGGNSGGEYWGQGTLVTVSS
# notes: as for B2
# B4: m36.5 (VHH)
# VHH: QVQLVQSGGGLVQPGGSLRLSCAASAFDFSDYEMSWVREAPGKGLEWIGEINDSGNTIYNPSLKSRVTISRDNSKNTLYLQMNTLSAEDTAIYYCAIYGGNSGGEYWGQGTLVTVSS
# notes: as for B2
# Molecular target: T1, gp120Bal-CD4
# T1 construct: also called 120Bal-CD4 complex
# Test: ELISA, OD 450 nm
row,Binder,EC50 (read off the curve)
1,B1,~1 nM
2,B2,~1 nM
3,B3,~2 nM
4,B4,~1 nM
